One series addresses T1, DFB0.
T1 construct: Bivalent connector
T1 chain: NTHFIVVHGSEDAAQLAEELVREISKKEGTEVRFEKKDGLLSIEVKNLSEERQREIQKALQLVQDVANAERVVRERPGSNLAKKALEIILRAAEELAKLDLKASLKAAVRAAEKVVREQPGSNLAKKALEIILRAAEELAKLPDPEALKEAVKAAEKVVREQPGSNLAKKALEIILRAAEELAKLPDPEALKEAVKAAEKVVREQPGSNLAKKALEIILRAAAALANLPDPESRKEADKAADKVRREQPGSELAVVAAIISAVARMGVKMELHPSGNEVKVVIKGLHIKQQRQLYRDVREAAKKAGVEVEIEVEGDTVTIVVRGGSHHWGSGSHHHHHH
Put plainly: SEC of mixed components; trimer listed in Table 6.

The next series has as its target T2, DFB-1.
T2 construct: Bivalent connector
T2 chain: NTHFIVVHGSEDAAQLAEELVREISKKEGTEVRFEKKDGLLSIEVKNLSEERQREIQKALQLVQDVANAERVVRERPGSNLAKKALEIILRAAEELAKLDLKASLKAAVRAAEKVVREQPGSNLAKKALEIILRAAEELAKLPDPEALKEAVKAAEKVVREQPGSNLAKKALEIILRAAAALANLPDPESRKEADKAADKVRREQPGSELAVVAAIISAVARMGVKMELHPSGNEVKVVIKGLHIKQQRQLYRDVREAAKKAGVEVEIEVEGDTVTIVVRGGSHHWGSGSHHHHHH
Put plainly: SEC of mixed components; trimer listed in Table 6.

Series [1] deals with the molecule itself. Put plainly: SEC titration (Superdex 200, normalised A230) of 274A53 and 29A53 alone; self-association.
A further series deals with T3, TF10.
T3 construct: Trivalent connector
T3 chain: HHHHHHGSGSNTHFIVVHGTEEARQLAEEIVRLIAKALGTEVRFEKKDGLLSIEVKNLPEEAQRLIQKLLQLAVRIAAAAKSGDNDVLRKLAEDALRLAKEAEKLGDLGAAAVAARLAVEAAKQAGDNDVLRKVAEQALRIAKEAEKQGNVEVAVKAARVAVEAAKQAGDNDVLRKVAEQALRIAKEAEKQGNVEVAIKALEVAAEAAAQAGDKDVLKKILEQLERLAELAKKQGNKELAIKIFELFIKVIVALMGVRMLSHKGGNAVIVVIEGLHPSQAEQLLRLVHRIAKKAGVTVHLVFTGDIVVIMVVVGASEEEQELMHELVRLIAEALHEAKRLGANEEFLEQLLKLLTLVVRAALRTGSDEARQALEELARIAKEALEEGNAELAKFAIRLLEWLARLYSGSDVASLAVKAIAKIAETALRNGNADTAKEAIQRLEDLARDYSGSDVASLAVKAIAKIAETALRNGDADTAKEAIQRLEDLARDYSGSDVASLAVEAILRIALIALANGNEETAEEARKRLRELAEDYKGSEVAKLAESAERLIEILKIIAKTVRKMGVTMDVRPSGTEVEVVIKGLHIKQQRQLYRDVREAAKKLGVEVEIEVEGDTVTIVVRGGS
Put plainly: SEC (A230) of A---, -BCD and ABCD and negative-stain EM; components named in the legend of FIG. 17A, which paragraph 104 ties to FIG. 4A. As for the experimental part: Complexes and individual components were diluted in 20 mM Tris pH 8.0, 100 mM NaCl. After o/n equilibration of the mixtures at room temperature or 4 degrees C., 500 ul of sample was injected onto a Superdex™ 200 10/300 increase GL (dimers, linear assemblies) or Superose™ 6 increase 10/300 GL (symmetric assemblies) (all columns from GE healthcare) using the absorbance at 230 nm or 473 nm (for GFP tagged components) as read-out. Dimers were mixed at monomer concentrations of 5 μM or higher. Trimer and ABCD tetramer mixtures contained 5 μM of the bivalent connector, and 7.5 μM of each terminal cap (lower absolute concentrations with the same ratios were used for some trimers). ABCA tetramer mixtures contained 5 μM per bivalent connector and 15 μM terminal cap. The hexamer mixture contained 3 μM of components C and D, 3.6 μM of B and E, and 4.4 μM of A and F. The branched assembly shown in FIG. 4A contained 2.8 μM of the trivalent connector and 4 μM of each cap. For the exchange experiment shown in FIG. 5A, the ABC trimer was preincubated at concentrations of 6 μM B and 9 μM each of A and C. C′ was then added to reach a final concentration of 2 μM B, 3 μM each of A and C, and 6 μM C′.
SEC peak fractions were concentrated prior to negative stain EM screening. Samples were then immediately diluted 5 to 150 times in TBS buffer (25 mM Tris pH 8.0, 25 mM NaCl) depending on sample concentration. A final volume of 5 μL was applied to negatively glow discharged, carbon-coated 400-mesh copper grids (01844-F, TedPella, Inc.), then washed with Milli-Q™ Water and stained using 0.75% uranyl formate as previously described (53). Air-dried grids were imaged on a FEI Talos L120C TEM (FEI Thermo Scientific, Hillsboro, OR) equipped with a 4K×4K Gatan OneView™ camera at a magnification of 57,000× and pixel size of 2.51. Micrographs were imported into CisTEM software or cryoSPARC™ software and a circular blob picker was used to select particles which were then subjected to 2D classification. […]

Another series addresses T4, TF3.
T4 construct: Trivalent connector
T4 chain: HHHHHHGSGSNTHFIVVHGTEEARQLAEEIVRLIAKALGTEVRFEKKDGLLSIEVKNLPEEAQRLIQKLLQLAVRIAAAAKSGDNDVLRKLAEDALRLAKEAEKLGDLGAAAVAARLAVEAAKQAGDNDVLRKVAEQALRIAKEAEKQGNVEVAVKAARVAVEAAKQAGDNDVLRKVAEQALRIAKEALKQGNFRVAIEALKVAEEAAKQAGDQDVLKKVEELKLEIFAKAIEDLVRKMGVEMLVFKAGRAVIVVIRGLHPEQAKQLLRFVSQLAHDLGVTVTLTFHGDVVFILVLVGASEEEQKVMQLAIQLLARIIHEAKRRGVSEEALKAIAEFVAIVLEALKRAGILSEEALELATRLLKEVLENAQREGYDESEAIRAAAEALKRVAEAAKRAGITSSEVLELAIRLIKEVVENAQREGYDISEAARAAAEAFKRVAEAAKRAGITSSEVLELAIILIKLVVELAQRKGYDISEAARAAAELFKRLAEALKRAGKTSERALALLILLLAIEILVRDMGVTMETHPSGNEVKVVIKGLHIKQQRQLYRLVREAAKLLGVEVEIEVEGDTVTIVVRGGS
Put plainly: SEC of the trivalent connector TF3, its three caps and the full mixture, with SDS-PAGE of the fractions; components named in the legend.

These results are taken from patent US20240368233A1 (University of Washington, published 2024).

B1: 274A53 (designed binder)
chain: TTNFHLINGSEEARQLIEKAVRAISKKEGTEVHFEKSDGTLEIRVKNLHEKREREIKKVIELILEVAAAERIVRERPGSNLAKKALEIILRAAEELAKADVDAALEAAVRAAEKVVREQPGSNLAKKALEIILRAAEELAKLPDPEALKEAVKAAEKVVREQPGSELAKKALEIIERAAEELKKSPDPEAQKEAKKAEQKVREESGSHHWGSGLNDIFEAQKIEWHEGSHHHHHH
notes: also called LHD274A DHR53 stop; LHD274A53
As for B1, the binding result with DFB0 is reported as “binds”; with DFB-1 it was “binds”; in series [1], “no binding (tested: 8.0 uM)”; with TF10, “binds”; with TF3, “binds”.

B2: 101B62 (designed binder)
chain: HHHHHHGSGLNDIFEAQKIEWHEAENLYFQSGSNDEKRKRAEKALQRAQEAEKKGDVEEAVRAAQEAVRAAKESGDNDVLRKVAEQALRIAKEAEKQGNVEVAVKAARVAVEAAKQAGDNDVLRKVAEQALRIAKEALKQGNVDVAAKAAQVAEEAAKQAGDQDVLRKVKEVQIEIVLAAIELTVRKMGVTMETHRSGREVKVVIKGLHESQQEQLLEDVLRIAELAGVRVRIRFKGDTVTIVVRG
notes: also called LHD101B62
Turning to B2, the binding result in the series with DFB0, in the series with DFB-1, in the series with TF10 and with TF3 was “binds” each time.
